For one data set, the target named is fluorescein. Briefly: Kd (Tite-Seq). Particulars: format: scFv 4-4-20, heavy + light.
Data set [1] can be described thus: yeast surface expression (ratio to wild type); higher = more expressed. The settings on record: format: scFv 4-4-20, heavy + light.

B1: unnamed (protein)
chain 1: EVKLDETGGGLVQPGRPMKLSCVASGFEPQSPSPQNKRQSPEKGLEWVAQIRNKPYNYETYYSDSVKGRFTISRDDSKSSVYLQMNNLRVEDMGIYYCTAHETLLCCLWQGTSVTVS
chain 2: DVVMTQTPLSLPVSLGDQASISCRSSQSLVHSNGNTYLRWYLQKPGQSPKVLIYKVSNRFSGVPDRFSGSGSGTDFTLKISRVEAEDLGVYFCSQSTHVPWTFGGGTKLEIK
In the case of B1, the Kd in the data set with fluorescein was not below 10 µM. Further, in data set [1], the yeast surface expression is 0.444.

Usually Kd stands for a measure of binding affinity in units of concentration.
